Test results reported in patent US12366576B2, “Compositions, assays, and methods for direct modulation of fatty acid metabolism” (Dana-Farber Cancer Institute, Inc., priority 2016, dated 2025).
Bridge positions count the residues as written; N and C are the ends. Square brackets hold non-standard residues; d marks the D form. Ends that are not written are not given here. S5 = C=CCCC[C@](C)(N)C(=O)O

Target: T1, MCAD (Mus musculus, UniProt P45952)
T1 construct: endogenous in cells; host or cells: wild-type mouse embryonic fibroblasts (lysate)
T1 sequence (P45952 26-421): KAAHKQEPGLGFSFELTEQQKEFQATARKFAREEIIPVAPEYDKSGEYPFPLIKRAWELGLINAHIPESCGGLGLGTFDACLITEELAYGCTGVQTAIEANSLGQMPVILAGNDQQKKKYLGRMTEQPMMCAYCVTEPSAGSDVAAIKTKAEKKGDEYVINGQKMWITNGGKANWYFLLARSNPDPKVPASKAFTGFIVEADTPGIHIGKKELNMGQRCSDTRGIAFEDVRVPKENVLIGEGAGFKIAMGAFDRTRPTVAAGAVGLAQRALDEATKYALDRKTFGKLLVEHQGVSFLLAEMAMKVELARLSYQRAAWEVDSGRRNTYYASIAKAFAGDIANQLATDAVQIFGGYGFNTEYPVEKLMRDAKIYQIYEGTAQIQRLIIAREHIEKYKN
Test: Biotinylated SAHB pulldown from MEF lysates, MCAD Western analysis
Type: binding
Settings: wild-type MEF lysates
Source text: To validate the MS result, the pulldowns were repeated and eluates run on a gel for anti-VLCAD Western blot analysis. […] All peptides faithfully recapitulated native BH3-binding propensities for endogenous MCL-1 protein (FIG. 8). The eluates were then probed for the other members of the acyl-CoA dehydrogenase family that manifest shorter fatty acid substrate specificities. MCL-1 SAHBD was able to pull down VLCAD, but not MCAD or SCAD (FIG. 9). Because the traditional MCL-1 staple location differs from that of the BIM, BID, and BAD SAHBs, it was important to confirm that the observed VLCAD binding specificity was due to BH3 sequence selectivity, not staple position. A BIM SAHB with the traditional MCL-1 staple (BIM SAHBF), and a MCL-1 stapled peptide with the traditional BIM staple (MCL-1 SAHBA), were generated. […]
Wild-type MEFs were trypsinized, washed once with cold PBS, and lysed on ice with NP-40 lysis buffer (50 mM Tris, pH 7.4, 150 mM NaCl, 0.5% (v/v) NP-40, complete protease inhibitor pellet (Roche)) using 1 ml of lysis buffer for every 10 million cells lysed. Cellular debris was pelleted at 14,000 g for 10 min at 4° C., and the supernatant was quantified using the BCA Protein Assay Kit (Thermo Fisher Scientific). […]

Substance: MCL-1 SAHBD: hydrocarbon-stapled peptide mimicking the MCL-1 BH3 domain (Stabilized Alpha-Helix of BCL-2 Domain), SEQ ID NO:19 (RKALETLRRVGDGV[S5]RNH[S5]TAF; staple 15-19)
- pull down of MCAD from cellular lysates: not
